From the nanobody polyreactivity screen of Harvey et al. (2022) come the findings set out here.

This data set is described as follows: yeast display, Sf9 membrane polyspecificity reagent, FACS + sequencing; frameworks hold sequencing errors. In a few lines:
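Synthetic nanobody libraries on Saccharomyces cerevisiae BJ5465 were galactose-induced for 36–48 hours, stained 1 hour at 4 °C with 10% biotinylated, detergent-solubilized Sf9 membrane reagent and enriched on streptavidin microbeads. FACS then separated cells into low and high (top ~1%) gates by anti-HA (expression) and streptavidin (reagent binding) fluorescence. Genes were colony-PCR amplified, MiSeq 2 × 250 sequenced and CDR-length filtered. A clone's polyreactivity label is that of its gate of origin.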
On to “QVQLVESGGGLVQAGGSLRLSCAASGSTIRFYYMGWYRQEPGKERELVAAITGIGDSTYYSDSVKGRFTISRDNAKNSVYLQMNSLKPEDTAVYYCAAERYYYTARLRYWRYFWGQGTQVTVSS”, for which the “polyreactivity (PSR sort gate)” value is recorded as “high polyreactivity”.

Consider “QVQLVESGGGLVQAGGSLRLTCAASGRIFTGNSMGWYRQAPGQERELVAAITRRGGNTYYADSVKGRFTISRDNAKNTVYLQMNSLKPEDTAVYSCARDRPGDYAGYDYWGQGTQVTVSS”, for which the “polyreactivity (PSR sort gate)” value is “low polyreactivity”.

For the sequence “QVQLVESGGGLVQAGGSLRLSCAASGLTFRYYTMGWYRQAPGKERELVAAITKSGSSTYYADSVKGRFTISRDNAKNTVYLQMNSLKPEDTAVYYCAKDSNHWGQGTQVTVSS”, the “polyreactivity (PSR sort gate)” value is on record as “high polyreactivity”.

As to “QVQLVESGGGLVQAGGSLRLSCAASGRIFAYYAMGWYRQAPGTERELVALISSTGGSTYYADSVKGRFTISRDNAKNTVYLQMNSLKPEDTAVYYCNKQVTGAERFQGHGAYYWGQGTQVTVSS”, the “polyreactivity (PSR sort gate)” value was “high polyreactivity”.

Regarding “QVQLVESGGGLVQAGGSLRLICDASGSTFGYYAIGGYRQAPGKERELVAVINKSGGRTYYADSVKGRFTISRDNAKNTVYLQMNSLKPEDTAVYYCATRVTSTRHDYWGQGTQVTVSS”, the “polyreactivity (PSR sort gate)” value was “high polyreactivity”.

On to “QVHLVESGGGLVQAGGSLRLSCAASGRIFYYNAIGWYRQAPGKERELVANITRARGTYYADSVKGPFTISRDNAKNTVYLQMNSLKPEDTAVYYCAKRHPIVDDYKGDYWGQGTQVTVSS”, for which the “polyreactivity (PSR sort gate)” value is recorded as “low polyreactivity”.

“QVQLVESGGGLVQAGGSLRLSCAASGSTFGYYAMGWYRQAHGKERELVAAITSGGSTNYADSVKGRFTISRDNAKNTVYLQMNSLKPEDTAVYYCAAADSYRYHLRRYNYWGQGTQVTVSS”: the “polyreactivity (PSR sort gate)” value is listed as “low polyreactivity”.

For the sequence “QVQLVESGGGLVQAGGSLRLSCAASGRIFQTYAMGWYRQAPGKERELVASISWSGGSTYYADSVKGRFTILRDNAKNTVYLQMNSLKPEDTAVYYCAAVYYSTDYYFWYDYWGQGTQVTVSS”, the “polyreactivity (PSR sort gate)” value is “low polyreactivity”.

On to “QVQLVESGGGLVQAGGSLRLSCAASGRTFRINAMGWYRQAPGKEREMVAAIRSRAGSTYYADSVKGRFTISRDNAKNTVYLQMYSLKPEDTAVYYCAAKFPFDVDYWGQGTQVTVSS”, for which the “polyreactivity (PSR sort gate)” value is reported as “high polyreactivity”.

Regarding “QVQLVESGAGLVQAGGSHRLSCAASGRNFYWNARGWYRQAPGKEREFVAAISWSGGSTYADSVKGRFTISRDNAKNTVYLQMNSLKPEDTAVYYCAIRVSRSFRAYDYWGQGTQVTVSS”, the “polyreactivity (PSR sort gate)” value was “high polyreactivity”.

Regarding “QVQLVESGGGLVQAGGSLRLSCAASGSTFAANAMGWYRQAPGKERELVAVIRRGGSTTYADSVKGRFTISRDNAKNTVYLLMNSLKPEDTAVYYCNARVTLGRPLFTYLVRYEYWGQGTQVTVSS”, the “polyreactivity (PSR sort gate)” value is on record as “high polyreactivity”.

For “QVQLVESGGGLVQAGGSLRLSCAASGRTFSAYTMGWYRQAPGKERELVAAITSGTSTYYADSVKGRFTISRDNAKNTVYLQMNSLKPEDTAVYYCNARDSGRWWHIGQSGEDYWGQGTQVTVSS”, the “polyreactivity (PSR sort gate)” value is given as “low polyreactivity”.

With “QVQLVESGGGLVQAGGSLRLSCAASGFTFGGYAMGWYRQAPGKERELVAAISRSGGSTSYADSVKGRFTISRDNAKNTVYLQMNSLKPEDTAVYYCATLWTTKYWGQGTQVTVSS”, the “polyreactivity (PSR sort gate)” value is recorded as “high polyreactivity”.

On to “QVQLVESGGGLVQAGGSLRLSCAASGRTFRLYAMGWYRQAPGKERELVAAIDGNGGSTYYADSVKGRFTISRDNAKNTVYLQMNSLKPEDTAVYYCAVSVSVYLDYRRDHQRGYDYWGQGTQVTVSS”, for which the “polyreactivity (PSR sort gate)” value was “low polyreactivity”.

On to “QVQLVESGGGLVQAGGSLRVSCAASGFIFSYNAMGWYRQEPGKERELVAAMSSGGGSTYYADSVKGRFTISRDNAKNTVYLQMNSLKPEDTAVSYCAARVAYTFGYWGQGTQVTVSS”, for which the “polyreactivity (PSR sort gate)” value is “high polyreactivity”.

With “QVQLVESWGGLVQSGGSLRLSCAASGFTFGHNAMGWYIQAPGKERELVAAIDTSGGSTYYADSVKGRFTISRDNEKNTVYLKMNSLKPEDTAVYYCAAFSASYGGYDYWGQGTQVTVSS”, the “polyreactivity (PSR sort gate)” value was “high polyreactivity”.

Regarding “QVQLVESGGGLVQAGGILRISCAASGSTFGWYTMGWYRQAPGKERELVAAITSRGTRTSYADSVTGRFTISRDIAKNTVYLQMNSLKTEDTAVYYCAARVFRGLGEYYWGQGTQVTVSS”, the “polyreactivity (PSR sort gate)” value is recorded as “high polyreactivity”.

As to “QVQLVESGGGLVQAGGSLRLICADSRRTFVSYTMGWYRQAPAKERELVAAISSGGSTTYADSVKGRFTISRDNAKNTVYLQMNSLKPEDTAVYYGNARYGWSYWSKYDYWGQGTQVNVSS”, the “polyreactivity (PSR sort gate)” value is reported as “high polyreactivity”.

On to “QVQLVESGGGLVQAGGSLRLSCAASGSTFGLNVMGWYRQAPGKEREFVAGISRSGGRTYYADSVKGRFTISRDNAKNTVYLQMNSLKPADTAVYYCAADYWTGITPDAIGDYWGQGTQVTVSS”, for which the “polyreactivity (PSR sort gate)” value was “low polyreactivity”.

On to “QVQLEESGGGLVQAGGSLRLSCAASGFTSYYAMGWYRQAPGKERELVAAIRYSTVSTYYADAVKGRFTISRDNAKNTVYLQMNIMKPEDTAVYYCAAQRRPYLPGHYYYWGQGTQVTVSS”, for which the “polyreactivity (PSR sort gate)” value is reported as “high polyreactivity”.

Turning to “QVQLVESGGGLVQAGGSLRLSCAASGRTFSYYAMGWYRQAPGKERELVAAITDSGDSTYYADSVKGRFTISRDNAKNTVYLQMNSLKPEDTAVYYCAAEIYSYYRFYWYDYWGQGTQVTVSS”, the “polyreactivity (PSR sort gate)” value was “high polyreactivity”.

Turning to “QVQLVESGGGLVQAGGSLRLSCAASGFIFDYYTMGWYRQAPGKERELVASIRSSGSSTYYADSVKGRFTISRDNAKNTVYLQMNSLKPEDTAVYYCARRYVVNRDWGDDYWGQGTQVTVSS”, the “polyreactivity (PSR sort gate)” value is given as “high polyreactivity”.

Take “QVQLVESGGGLVQAGGSLRLSCAAYGSIFSWNAMGWYIQAPRKERELVAGITWSGGGTSYADSVKGRFTISRDNAKNTVYLQMNSLKPEDTAVYYCAKEWIFEFNYWGQGTQVTVSS”: the “polyreactivity (PSR sort gate)” value is “low polyreactivity”.

As to “QVQLVESGGGLVQAGGSLRLSCAASGSNYSGYTMGWYRQAPGKERELVAAISYRGGRTYYADSVKGRFTISRDNAKNTVYFLMNSLKPEDTAVYYCNAAPYITRRHDYWGQGTLVTVSS”, the “polyreactivity (PSR sort gate)” value is given as “high polyreactivity”.

As to “QVQLVESGGGVVQAGGSLRLSCAASGFIFFINDMGWDRQAPGKERELVAAISWSGGSTYYADSVKGRFTISRDNAKNTVYLQMNSLIPEDTAVYYCNTDVPTAQYDYWGQGTQVTVSS”, the “polyreactivity (PSR sort gate)” value is “low polyreactivity”.

As to “QVQLVESGGGLVQAGGSLRLSSAASGSIFPSYAMGWYIQAPGKETELVAAITTSGGNTFYADSVKGRFTISRDNAKNTVYLQMNSLKPEDTAVYYCAADYSPYTVEYDYWGQGTQVTVSS”, the “polyreactivity (PSR sort gate)” value is given as “low polyreactivity”.

Consider “QVQLVESGGGLDQAGGSLRLSCAASGSIFSGYAMGWYRQAPGKERELVAGISSRGGRTYYADSVKGRFTISRDNAKNTVYLQMNSLKPEDTAVYYCAARWSRSRTSDRYNYWGQGTQVTVSS”, for which the “polyreactivity (PSR sort gate)” value is reported as “high polyreactivity”.

As for “QVQLVESGGGLVQAGGSLRLSCAASGFTFNGNAMGWYRQAPGKERELVAAISYSGGSTYYADSVKGRFTISRDNAKNTVYLQMNSLKPVDTAVFYCAADRTAYSVRAFTKDHSGHDYCGQGTQVTVSS”, the “polyreactivity (PSR sort gate)” value is listed as “low polyreactivity”.

Regarding “QVQLVESGGGLVQAGGSLRLSCAASGNTFRYYAMGWYRQAPGKERELVAAISGDGGSTYYADSVKGRFTISRDNAKNTVYLQMNSLKPEDTAVYYCNKAGRRRYRESDYWGQGTQVTVSS”, the “polyreactivity (PSR sort gate)” value is reported as “high polyreactivity”.

Consider “QVQLVESGGGLVQAGGSLRLSCAASGRTFTRYAMGWYRQAPGKERELVATINSSGDRTYYADSVKGRFTISRDNAKNTVYLQMNSLKPEDTAVYYCAKRWSPYLYGYWGQGTQVTVSS”, for which the “polyreactivity (PSR sort gate)” value is on record as “high polyreactivity”.
